Data: patent US6090911

T1: B1 basic leucine zipper protein
T1 sequence: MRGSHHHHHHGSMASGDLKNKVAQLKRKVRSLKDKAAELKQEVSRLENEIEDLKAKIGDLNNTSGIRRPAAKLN

B1: A1 acidic leucine zipper protein (designed binder)
chain: MRGSHHHHHHGSMASGDLENEVAQLEREVRSLEDEAAELEQKVSRLKNEIEDLKAEIGDLNNTSGIRRPAAKLN
B2: B1 basic leucine zipper protein (designed binder)
chain: T1 sequence

What was measured:
[1] = target: T1, B1 basic leucine zipper protein; test: urea denaturation of the equimolar mixture followed by CD at 222 nm, two-state model; ΔGu from lnKd,u (dissociation of the dimers) extrapolated to zero denaturant
[2] = target: A1 acidic leucine zipper protein; test: urea denaturation followed by CD at 222 nm, two-state model; ΔGu from lnKd,u (dissociation of the dimers) extrapolated to zero denaturant
[3] = target: A1 acidic leucine zipper protein; test: urea denaturation followed by CD at 222 nm; difference in the free energies of unfolding at 50% unfolded
[4] = target: T1, B1 basic leucine zipper protein; test: urea denaturation of the equimolar mixture followed by CD at 222 nm; difference in the free energies of unfolding at 50% unfolded
[5] = target: A1 acidic leucine zipper protein; test: analytical ultracentrifugation of protein solutions (24 to 220 µM); self-association of A1 dimers to tetramers; 95% confidence limits printed as (50-112)
[6] = target: T1, B1 basic leucine zipper protein; test: urea denaturation followed by CD at 222 nm, two-state model; ΔGu from lnKd,u (dissociation of the dimers) extrapolated to zero denaturant
[7] = target: T1, B1 basic leucine zipper protein; test: urea denaturation followed by CD at 222 nm; difference in the free energies of unfolding at 50% unfolded
[8] = target: T1, B1 basic leucine zipper protein; test: analytical ultracentrifugation of protein solutions (24 to 220 µM); self-association of B1 dimers to tetramers; 95% confidence limits printed as (1-6)

Row | Binder | ΔGu [1] | ΔGu [2] | ΔΔGu [3] | ΔΔGu [4] | Dimer-Tetramer Kd [5] | ΔGu [6] | ΔΔGu [7] | Dimer-Tetramer Kd [8]
1 | B1 | 13.8 kcal/mol | 11.5 kcal/mol | 0 kcal/mol | 2.75 kcal/mol | 76 µM | – | – | –
2 | B2 | – | – | – | – | – | 12.6 kcal/mol | 0.13 kcal/mol | 123 µM
